Reference: the supplement of paper PMC10567573

B1: SETD8 (parent)
chain: FVVEYHGDLIEITDAKKREALYAQ
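Further: lentivirally expressed fusions sorted by FACS into six bins by GFP to DsRed ratio, PSI derived from sequencing read proportions per bin multiplied by bin number.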

Variants of: B1
Experiment: protein stability index of a GFP-peptide fusion (GPS, HEK-293T) (PSI 1-6); higher = more stable
Settings: c terminus: a fixed tail appended
Variant FVVEYHGDLIEITDAKKREAPYAQ [L21P] has a protein stability index of 3.09.
For FVVEYHGDLIEITDAKKREANYAQ [L21N], the protein stability index was 1.81.
Work on FVVEYHGDLIEITDAKKREAIYAQ [L21I] yielded a protein stability index of 1.36.
Work on FVVEYHGDLIEITDAKKREAAYAQ [L21A] yielded a protein stability index of 2.01.
For FVVEYHGDLIEITDAKKREADYAQ [L21D], the protein stability index was 2.52.
In the case of FVVEYHGDLIEITDAKKREAHYAQ [L21H], the protein stability index is reported as 2.79.
Variant FVVEYHGDLIEITDAKKREAGYAQ [L21G] has a protein stability index of 2.05.
Variant FVVEYHGDLIEITDAKKREAEYAQ [L21E] has a protein stability index of 2.88.
Variant FVVEYHGDLIEITDAKKREACYAQ [L21C] has a protein stability index of 1.82.
FVVEYHGDLIEITDAKKREAMYAQ [L21M] showed a protein stability index of 1.7.
Variant FVVEYHGDLIEITDAKKREAFYAQ [L21F] has a protein stability index of 1.73.
Variant FVVEYHGDLIEITDAKKREAKYAQ [L21K] has a protein stability index of 2.38.
Work on FVVEYHGDLIEITDAKEREALYAQ [K17E] yielded a protein stability index of 2.14.
FVVEYHGDLIEITDAKYREALYAQ [K17Y] showed a protein stability index of 1.34.
Variant FVVEYHGDLIEITDAKFREALYAQ [K17F] has a protein stability index of 2.17.
With FVVEYHGDLIEITDAKMREALYAQ [K17M] the protein stability index was 2.46.
Work on FVVEYHGDLIEITDAKQREALYAQ [K17Q] yielded a protein stability index of 1.85.
Work on FVVEYHGDLIEITDAKIREALYAQ [K17I] yielded a protein stability index of 1.75.
FVVEYHGDLIEITDAKLREALYAQ [K17L] gave a protein stability index of 1.73.
With FVVEYHGDLIEITDAKRREALYAQ [K17R] the protein stability index was 1.33.
In the case of FVVEYHGDLIEITDAKVREALYAQ [K17V], the protein stability index is reported as 2.07.
With FVVEYHGDLIEITDAKAREALYAQ [K17A] the protein stability index was 1.59.
FVVEYHGDLIEITDAKGREALYAQ [K17G] gave a protein stability index of 1.26.
FVVEYHGDLIEITDAKSREALYAQ [K17S] showed a protein stability index of 1.81.
Work on FVVEYHGDLIEITDAKDREALYAQ [K17D] yielded a protein stability index of 1.65.
With FVVEYHGDLIEITDAKWREALYAQ [K17W] the protein stability index was 1.84.
For FVVEYHGDLIEITDAKHREALYAQ [K17H], the protein stability index was 1.61.
With FVVEYHGDLIEITDAKTREALYAQ [K17T] the protein stability index was 1.6.
With FVVEYHGDLIEITDAKNREALYAQ [K17N] the protein stability index was 2.06.
In the case of FVVEYHGDLIEITDAKCREALYAQ [K17C], the protein stability index is reported as 2.17.
Variant FVVEYHGDLIEITDATKREALYAQ [K16T] has a protein stability index of 1.28.
Variant FVVEYHGDLIEITDAIKREALYAQ [K16I] has a protein stability index of 1.78.
FVVEYHGDLIEITDAWKREALYAQ [K16W] showed a protein stability index of 3.04.
Variant FVVEYHGDLIEITDAQKREALYAQ [K16Q] has a protein stability index of 2.48.
FVVEYHGDLIEITDARKREALYAQ [K16R] gave a protein stability index of 2.07.
FVVEYHGDLIEITDAPKREALYAQ [K16P] showed a protein stability index of 1.5.
FVVEYHGDLIEITDAMKREALYAQ [K16M] showed a protein stability index of 1.59.
For FVVEYHGDLIEITDAVKREALYAQ [K16V], the protein stability index was 1.76.
For FVVEYHGDLIEITDASKREALYAQ [K16S], the protein stability index was 2.59.
FVVEYHGDLIEITDANKREALYAQ [K16N] gave a protein stability index of 1.68.
In the case of FVVEYHGDLIEITDAKKREVLYAQ [A20V], the protein stability index is reported as 1.97.
FVVEYHGDLIEITDAKKREILYAQ [A20I] showed a protein stability index of 2.09.
With FVVEYHGDLIEITDAKKREYLYAQ [A20Y] the protein stability index was 1.71.
Work on FVVEYHGDLIEITDAKKREELYAQ [A20E] yielded a protein stability index of 2.67.
Work on FVVEYHGDLIEITDAKKREDLYAQ [A20D] yielded a protein stability index of 2.48.
FVVEYHGDLIEITDAKKRELLYAQ [A20L] showed a protein stability index of 1.39.
FVVEYHGDLIEITDAKKREMLYAQ [A20M] gave a protein stability index of 1.38.
Work on FVVEYHGDLIEITDAKKRERLYAQ [A20R] yielded a protein stability index of 1.68.
With FVVEYHGDLIEITDAKKREGLYAQ [A20G] the protein stability index was 1.75.
With FVVEYHGDLIEITDAKKREPLYAQ [A20P] the protein stability index was 1.08.
FVVEYHGDLIEITDAKKREFLYAQ [A20F] showed a protein stability index of 1.39.
In the case of FVVEYHGDLIEITDAKKRECLYAQ [A20C], the protein stability index is reported as 2.08.
Work on FVVEYHGDLIEITDAKKREQLYAQ [A20Q] yielded a protein stability index of 1.78.
With FVVEYHGDLIEITDAKKREKLYAQ [A20K] the protein stability index was 1.85.
With FVVEYHGDLIEITDAKKRESLYAQ [A20S] the protein stability index was 2.3.
Work on FVVEYHGDLIEITDAKKRENLYAQ [A20N] yielded a protein stability index of 1.7.
In the case of FVVEYHGDLIEITDAKKREWLYAQ [A20W], the protein stability index is reported as 1.47.
In the case of FVVEYHGDLIEITDAKKREHLYAQ [A20H], the protein stability index is reported as 2.64.
Variant FVVEYHGDLIEITDAKKRETLYAQ [A20T] has a protein stability index of 2.06.
For FVVEYHGDLIEITDAKKYEALYAQ [R18Y], the protein stability index was 2.2.
With FVVEYHGDLIEITDAKKHEALYAQ [R18H] the protein stability index was 2.39.
For FVVEYHGDLIEITDAKKDEALYAQ [R18D], the protein stability index was 2.27.
With FVVEYHGDLIEITDAKKPEALYAQ [R18P] the protein stability index was 1.56.
With FVVEYHGDLIEITDAKKCEALYAQ [R18C] the protein stability index was 2.32.
FVVEYHGDLIEITDAKKMEALYAQ [R18M] showed a protein stability index of 2.98.
FVVEYHGDLIEITDAKKAEALYAQ [R18A] gave a protein stability index of 1.74.
Work on FVVEYHGDLIEITDAKKLEALYAQ [R18L] yielded a protein stability index of 1.87.
In the case of FVVEYHGDLIEITDAKKTEALYAQ [R18T], the protein stability index is reported as 1.57.
FVVEYHGDLIEITDAKKFEALYAQ [R18F] gave a protein stability index of 1.75.
For FVVEYHGDLIEITDAKKGEALYAQ [R18G], the protein stability index was 1.24.
With FVVEYHGDLIEITDAKKNEALYAQ [R18N] the protein stability index was 2.31.
FVVEYHGDLIEITDAKKWEALYAQ [R18W] gave a protein stability index of 2.33.
FVVEYHGDLIEITDAKKQEALYAQ [R18Q] gave a protein stability index of 1.46.
With FVVEYHGDLIEITDAKKVEALYAQ [R18V] the protein stability index was 1.82.
With FVVEYHGDLIEITDAKKSEALYAQ [R18S] the protein stability index was 2.04.
Work on FVVEYHGDLIEITDAKKIEALYAQ [R18I] yielded a protein stability index of 3.16.
For FVVEYHGDLIEITDAKKRHALYAQ [E19H], the protein stability index was 1.64.
Variant FVVEYHGDLIEITDAKKRCALYAQ [E19C] has a protein stability index of 2.87.
For FVVEYHGDLIEITDAKKRNALYAQ [E19N], the protein stability index was 1.27.
Variant FVVEYHGDLIEITDAKKRDALYAQ [E19D] has a protein stability index of 1.51.
Variant FVVEYHGDLIEITDAKKRSALYAQ [E19S] has a protein stability index of 1.81.
In the case of FVVEYHGDLIEITDAKKRPALYAQ [E19P], the protein stability index is reported as 1.84.
Work on FVVEYHGDLIEITDAKKRQALYAQ [E19Q] yielded a protein stability index of 1.7.
In the case of FVVEYHGDLIEITDAKKRWALYAQ [E19W], the protein stability index is reported as 1.96.
FVVEYHGDLIEITDAKKRYALYAQ [E19Y] gave a protein stability index of 1.81.
FVVEYHGDLIEITDAKKRLALYAQ [E19L] showed a protein stability index of 3.57.
FVVEYHGDLIEITDAKKRMALYAQ [E19M] gave a protein stability index of 2.3.
FVVEYHGDLIEITDAKKRVALYAQ [E19V] gave a protein stability index of 1.51.
In the case of FVVEYHGDLIEITDAKKRRALYAQ [E19R], the protein stability index is reported as 2.84.
Work on FVVEYHGDLIEITDAKKRAALYAQ [E19A] yielded a protein stability index of 2.41.
In the case of FVVEYHGDLIEITDAKKRFALYAQ [E19F], the protein stability index is reported as 2.97.
Work on FVVEYHGDLIEITDAKKRGALYAQ [E19G] yielded a protein stability index of 1.75.
FVVEYHGDLIEITDAKKRKALYAQ [E19K] gave a protein stability index of 1.47.
Work on FVVEYHGDLIEITDAKKRTALYAQ [E19T] yielded a protein stability index of 2.42.
